Measurements from patent US20240115693A1 (CHILDREN S MEDICAL CENTER, published 2024).

Target: T1, recombinant human ACE2 (hACE2-Fc, InvivoGen) (human, UniProt Q9BYF1 18-740)
T1 construct: not shown: Fc part of a bought reagent
Test: ELISA, LuS-Tag coated, hACE2-Fc titrated

T1 sequence (Q9BYF1 18-740): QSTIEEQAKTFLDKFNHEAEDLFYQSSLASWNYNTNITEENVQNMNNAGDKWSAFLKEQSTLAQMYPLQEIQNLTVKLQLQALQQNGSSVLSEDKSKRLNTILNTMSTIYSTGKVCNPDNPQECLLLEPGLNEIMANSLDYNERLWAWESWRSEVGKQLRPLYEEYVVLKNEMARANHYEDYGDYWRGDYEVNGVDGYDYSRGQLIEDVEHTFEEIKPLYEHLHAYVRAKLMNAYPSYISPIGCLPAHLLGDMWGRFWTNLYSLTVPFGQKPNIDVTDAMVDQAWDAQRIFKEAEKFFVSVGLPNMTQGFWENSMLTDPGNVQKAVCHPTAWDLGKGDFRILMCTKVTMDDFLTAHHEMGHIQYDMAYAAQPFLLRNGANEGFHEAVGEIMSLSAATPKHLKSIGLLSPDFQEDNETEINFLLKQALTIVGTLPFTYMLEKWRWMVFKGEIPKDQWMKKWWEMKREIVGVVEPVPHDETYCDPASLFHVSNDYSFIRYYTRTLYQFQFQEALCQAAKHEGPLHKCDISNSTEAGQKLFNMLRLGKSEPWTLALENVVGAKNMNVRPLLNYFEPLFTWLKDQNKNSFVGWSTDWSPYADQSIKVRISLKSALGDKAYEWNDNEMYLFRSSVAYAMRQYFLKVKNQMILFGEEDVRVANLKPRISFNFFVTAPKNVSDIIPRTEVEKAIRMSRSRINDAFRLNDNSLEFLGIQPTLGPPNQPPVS

B1: Lumazine synthase expressing SpyTag (LuS-Tag) (other)
chain: AHIVMVDAYKPTKMQIYEGKLTAEGLRFGIVASRFNHALVDRLVEGAIDCIVRHGGREEDITLVRVPGSWEIPVAAGELARKENIDAVIAIGVLIRGATPHFDYIASEVSKGLANLSLELRKPITFGVITADTLEQAIERAGTKHGNKGWEAALSAIEMANLFKSLR
Does B1 bind?
Result: no binding (tested: starting at 10 µg/ml)
